Source: publication PMC2195830

Biological target: phospholipase C (PLC)-γ2 (chicken (endogenous in DT40))
Assay: co-IP

- fold increase of the association in Cbl-deficient against wild-type DT40 cells: 3 fold
B1: phosphorylated B cell linker protein (BLNK), from BCR-stimulated DT40 cells (natural protein)
chain: MDKLNKLAVPAGEKFRKLQKMVHDIKKNESGIINKFKKFQNEQVALICKTGKDTWDRLKKKPPPSLPRRDYASEHADNEEEQWSDDFDSDYENPDGHSDSEMYVVPSEENPDDSYEPPPSEQEKKKIPSSFPISRGEYADNRTSHHQLPPINKPLPSTPSSALPRPKKPSLPSPAAKPKLPLKPRECSDDEDNYIVPVDNDDDNYIEPTESSTPPPAKPPVNRFMKPPAKSALPTPPKPSLASDMQEVYEVPEEEEELSPPPVTRFTKPLPATRAQNAEHSHMHSMTRESPKLDASRNILPLPRNRLHPKTDHEANNNDENHSFSNTQESKFPPGAAPSPLPRALKKTSNAVNPAKPCLPSRDTFTVNEDKPTAADRRRGSSHEFPLPPLPSGTPKSSLQKPLVLPKVPEAPSRALGTSPHSSISSISSTADQDAGVHSKAWYAATCDRKTAEDALYRSNKDGSFLIRKSSGQDSRQPYTLVVFYNRRVYNIPIRFIESTRQYALGREKCGEERFDSVAEIVENHQHTSLVLIDSQNNTKDSTKLKYIVRVS
modifications: phosphotyrosine (sites not defined in the paper)
